Molecular target: Calcineurin (CN) of HeLa cells, endogenous
Test: cell-based or functional assay

| percentage of cells with cytosolic NFATc2 staining after calcium ionophore [%] | Substance |
| --- | --- |
| 77 | GFP-LxVPc1 fusion protein |
| 92 | GFP-VIVIT fusion protein |

Source: patent publication US20100081624A1, “SELECTIVE PEPTIDES THAT INHIBIT THE BIOLOGICAL ACTIVITY OF CALCINEURIN” (Consejo Superior de Investigaciones Cientficas, priority 2005, published 2010)
